Laboratory results as given in US20180289803A1 (Eli Lilly, published 2018).

Target: human PD-L1 (endogenous, in the mixed leukocyte reaction of human CD4 T-cells and monocyte-derived dendritic … (human, UniProt Q9NZQ7 19-290))
Assay: cell-based or functional assay

IFN-γ levels in the mixed leukocyte reaction (MLR) at 4 nM antibody: ~3 fold
IFN-γ levels in the mixed leukocyte reaction (MLR) at 8 nM antibody: ~5 fold
B1: Antibody C (bispecific antibody, human IgG1, kappa, lambda, L234A L235A)
heavy 1: not shown
light 1: not shown
heavy 2: not shown
light 2: DIVMTQSPSSLSASVGDGVTITCQASQDIYNYLNWYQQKPGKAPKLLIYYASSIVSGVPSRFSGSGSGTDFTLTISSLQPEDFATYYCQQASSFPPTFGQGTKLEIKRTVAAPSVFIFPPSDEQLKSGTARVGCLLNNFYPREAKVQWKVDNALQSGNSQESVTEQDSKDSTYSLRSALTLSKADYEKHKVYACEVTHQGLSSPVTKSFNRGEC
